Reference: patent US12605469B2, “Tumor specific antibody conjugates and uses therefor” (The University of North Carolina at Charlotte, priority 2019, dated 2026)
“Also recorded” adds a separate entry of the source.

How the values were obtained:
[1] = system: orthotopic tumors (PyVMT, PyVMT.MUC1, HCC-70, and AU565); test: IVIS imaging of TAB-004-ICG in Nu-J nude mice with orthotopic tumors; format: in vivo, mouse; conditions: ICG-conjugated
Description: FIGS. 18A-18D are a series of fluorescent images showing specific homimg of the ICG-tagged TAB-004 antibody to tumor sites in mice bearing PyV MT tumors (MUC1 null negative control; FIG. 18A), PyV MT.MUC1 tumors (MMT, MUC1+ positive control; FIG. 18B), HCC70 cell triple negative breast cancer (TNBC) tumors (MUC1+; FIG. 18C), and AU565 TNBC cell tumors (MUC1+; […]) imaged 4 hours post-injection with antibody. Imaging was repeated as tumors progressed (indicated as days post tumor challenge). […] Each of FIGS. 18A-18D is accompanied by a graph showing the growth of the tumor from 7-21 days (FIGS. 18A and 18B) or from 7 to 54 days (FIGS. 18C and 18D).
To test if TAB-004 can specifically reach TNBC tumors in vivo in mice, orthotopic tumors (PyVMT, PyVMT.MUC1, HCC-70, and AU565) were produced in the mammary fat pad of mice. Nu-J nude mice (8-week old) were injected with 10×10^6 cells in the lower right inquinal area of the mammary fat pad. When tumors were palpable, mice were injected retroorbitally with 12.5 μgs of TAB-004-directly conjugated to Indocyanine green (ICG) and imaged 4 hours post antibody injection. […] A negative breast cancer cell line that is null for human MUC1 was used as control to test specificity (PyVMT; see FIG. 18A).

[2] = system: human pancreas and breast tumor tissue; test: immunohistochemical staining of human tumor and normal tissue; format: binding; conditions: IHC
Source text: FIGS. 1A and 1B are a series of photomicrographs depicting specific binding of an exemplary antibody of the presently disclosed subject matter to human and mouse pancreatic tumors. The dark staining in the panels is indicative of positive binding of the exemplary antibody to cells present in the sample. […] FIG. 1B is a series of photomicrographs depicting the binding of an exemplary antibody of the presently disclosed subject matter to spontaneous tumors present in the pancreas of 6, 16, 26, and 34 week old transgenic mice that carried a human MUC1 transgene and a K-ras^G12D mutation.
FIGS. 2A and 2B are a series of photomicrographs depicting specific binding of an exemplary antibody of the presently disclosed subject matter (i.e., a horse radish peroxidase (HRP)-labeled TAB-004 anti-MUC1 monoclonal antibody) to human breast tumor tissue. […]
Epitope screening determined that the TAB-004 monoclonal antibody (mAb) described herein bound to an epitope present within SEQ ID NO: 3. […]

B1: TAB-004: mAb of the IgG isotype produced by hybridoma ATCC PTA-11550; binds tumor-specific epitope of human MUC1 (antibody, V domains shown)
VH: EVQLQQSGGERATPGASVKMSCKTSGYTFTNYWMHWVKQRPGQGLEWIGYINPSSGYTQYNQKFKDKATLTADKSSSTAYIQLSSLTSEDSAVYYCSTYYGDYLFPYWGQGTLVTVSA
VL: DVLMTQTPLSLPVSLGDQASISCRSSQDIVYGNGNTYLEWYLQKPGQSPKLLIYKVSNRFSGVPDRFSGSGSGTDFTLKISRVEAEDLGVYYCFQGSHVPYTFGGGTKLEIKR
[1]; HCC70 and AU565, days post tumor challenge
  earliest specific localization to tumor sites, human cell lines: 21 days
[1]; days post tumor challenge
  earliest specific localization to tumor sites, PyVMT.MUC1 tumors: 11 days
[2]
  staining of normal tissue: did not bind appreciably to normal pancreas or breast tissue; also recorded: did not bind to normal tissue
  staining of tumor tissue: reacted strongly with tumor tissue; also recorded: strongly stained
